The values that follow are results of earlier work, collected in article PMC3418248 (2012).

A word on the Kd: it is the equilibrium constant for the complex coming apart.

This series addresses FtsZ C-terminal 17 amino acids (Bacillus subtilis) (UniProt P17865). Particulars: cited from earlier work.

Sequence of EzrA (O34894 whole entry): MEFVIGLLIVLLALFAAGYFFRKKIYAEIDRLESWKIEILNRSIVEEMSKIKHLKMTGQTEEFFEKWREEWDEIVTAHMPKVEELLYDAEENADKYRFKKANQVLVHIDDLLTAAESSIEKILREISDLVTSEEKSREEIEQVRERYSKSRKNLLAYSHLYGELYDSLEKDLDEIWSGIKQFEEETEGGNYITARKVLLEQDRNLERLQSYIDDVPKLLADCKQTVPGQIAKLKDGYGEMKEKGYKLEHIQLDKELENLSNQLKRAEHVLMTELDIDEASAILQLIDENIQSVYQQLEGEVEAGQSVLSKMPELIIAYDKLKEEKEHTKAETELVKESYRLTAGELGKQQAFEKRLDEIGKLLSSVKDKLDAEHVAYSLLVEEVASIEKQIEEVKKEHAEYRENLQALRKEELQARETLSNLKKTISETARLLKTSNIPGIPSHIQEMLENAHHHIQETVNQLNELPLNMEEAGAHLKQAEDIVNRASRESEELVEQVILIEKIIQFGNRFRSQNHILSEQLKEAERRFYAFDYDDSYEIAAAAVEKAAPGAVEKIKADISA

On to EzrA (from UniProt O34894), for which the Kd was 102 µM.
